{"source": "patent US20100196403A1", "about": "“ANTIBODY CONJUGATES FOR CIRCUMVENTING MULTI-DRUG RESISTANCE” (priority 2007, published 2010)", "key": {"ABCB1 transporter": {"target": "T1, ABCB1 transporter (Cricetulus griseus, UniProt P21448)", "T1 construct": "In drug resistant cells, calcein-AM is extruded by the ABCB1 transporter; endogenous in cells; host or cells: CHO cell clone CH(R)B30 (colchicine-resistant)", "T1 sequence (P21448 whole entry)": "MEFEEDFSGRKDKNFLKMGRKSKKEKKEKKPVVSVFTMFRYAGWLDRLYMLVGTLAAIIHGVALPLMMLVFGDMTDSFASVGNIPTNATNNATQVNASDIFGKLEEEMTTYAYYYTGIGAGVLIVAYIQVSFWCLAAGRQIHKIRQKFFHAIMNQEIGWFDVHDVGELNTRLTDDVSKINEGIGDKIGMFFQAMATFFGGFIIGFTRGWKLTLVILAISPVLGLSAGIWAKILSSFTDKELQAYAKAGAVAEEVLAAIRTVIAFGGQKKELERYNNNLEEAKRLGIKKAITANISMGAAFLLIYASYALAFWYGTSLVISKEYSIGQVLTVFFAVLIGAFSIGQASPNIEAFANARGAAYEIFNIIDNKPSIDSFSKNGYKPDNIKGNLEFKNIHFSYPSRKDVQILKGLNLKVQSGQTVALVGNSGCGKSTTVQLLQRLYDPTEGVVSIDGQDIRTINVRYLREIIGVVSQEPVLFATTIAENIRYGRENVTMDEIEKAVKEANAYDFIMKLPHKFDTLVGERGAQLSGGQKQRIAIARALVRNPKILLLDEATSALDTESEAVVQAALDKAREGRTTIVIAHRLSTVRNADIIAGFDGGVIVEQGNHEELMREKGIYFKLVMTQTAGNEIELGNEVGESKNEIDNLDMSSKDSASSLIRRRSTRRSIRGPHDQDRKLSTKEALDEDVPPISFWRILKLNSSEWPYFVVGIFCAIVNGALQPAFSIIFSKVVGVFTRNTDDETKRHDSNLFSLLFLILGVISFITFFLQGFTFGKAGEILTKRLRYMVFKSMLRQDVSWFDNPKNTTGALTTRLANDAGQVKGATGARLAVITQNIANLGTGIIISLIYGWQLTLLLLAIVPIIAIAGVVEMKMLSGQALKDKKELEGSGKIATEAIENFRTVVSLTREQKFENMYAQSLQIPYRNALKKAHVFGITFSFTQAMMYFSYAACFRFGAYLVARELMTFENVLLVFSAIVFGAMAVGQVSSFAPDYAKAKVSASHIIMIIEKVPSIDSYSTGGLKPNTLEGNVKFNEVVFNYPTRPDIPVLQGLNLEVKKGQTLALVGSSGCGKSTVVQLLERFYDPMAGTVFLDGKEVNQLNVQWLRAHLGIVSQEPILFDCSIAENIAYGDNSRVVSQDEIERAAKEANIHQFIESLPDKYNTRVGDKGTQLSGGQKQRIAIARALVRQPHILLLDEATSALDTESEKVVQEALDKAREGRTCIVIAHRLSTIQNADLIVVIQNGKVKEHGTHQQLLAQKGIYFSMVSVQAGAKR", "type": "cell-based, Chinese hamster", "protocol": "Cells were grown in alpha-MEM medium supplemented with 10% Fetal Calf Serum (FCS), penicillin 50 U/ml, streptomycin 50 μg/ml, and ceftazidim 50 μg/ml. For propagation of the clone, colchicine was added to this medium to a final concentration of 20 μg/ml.\nCells were diluted in alpha MEM to about 1.5×10^6 cells/ml. Volumes of 1 ml were distributed to 2 ml Eppendorf tubes. […] The capped tubes were positioned with their longitudinal axes inclined to 45° on a roller platform and were rotated in the incubator. The cells were incubated with conjugates, proteins, or peptides, respectively, at various concentrations and for various times. […] Calcein-AM was added to a final concentration of 1 μM or 2 μM at least 30 min before the end of incubation. Calcein-AM, a substrate of ABCB1, is a hydrophobic non-fluorescent substance that easily enters cells. Once in the cytoplasm, calcein-AM is hydrolysed, and the ensuing fluorescent calcein is retained within the cells. In drug resistant cells, calcein-AM is extruded by the ABCB1 transporter. […] All vials were stopped by addition of ice-cold medium and then put on ice for subsequent flow cytometry (beginning about 1 h after the end of incubation). […] 100,000 cells, in a few experiments 50,000 cells per vial were counted. […] The median channel xM of the y distribution and yM, the number of cells in xM, were determined."}, "HU-2 cells": {"tested_on": "HU-2 cells", "experiment": "Cell viability of HU-2 cells with toxic drugs (Trypan blue exclusion)", "type": "cell-based, mouse", "conditions": "2 μg/ml Adriamycin or 1 μg/ml colchicine, FIG. 6A", "method": "T-25 cells (Hochman et al, 1984), derived from S49 mouse lymphoma, were transduced with a retrovirus containing the human MDR1 cDNA, as previously described (Galski et al. 1995). The resultant cells (HU-2) are cross-resistant to colchicine, doxorubicin, vinblastine and actinomycin D, and their resistance to colchicine is reversed by verapamil. T-cell lymphoma derived cell lines were grown in Dulbecco's modified eagle medium (DMEM) supplemented with 10% heat-inactivated horse serum, at 37° C. in a humidified atmosphere containing 5% CO2.\nTo measure the sensitivity of HU-2 cells to toxic drugs, 1×10^5 cells per well were incubated with 10 μg of the conjugate for 4 hrs. 2 μg/ml of Adriamycin or 1 μg/ml of colchicine was then added and the cells incubated for a further 96 hrs. Stocks were prepared in DMSO. The maximal final concentration of DMSO in the assays was 0.5% (v/v). After 96 h, the cells were checked by light microscopy and viable cells were counted by Trypan blue exclusion."}, "[1]": {"target": "human MDR1 (P-gp) expressed in HU-2 mouse lymphoma cells (human) (UniProt P08183)", "sequence (P08183 whole entry)": "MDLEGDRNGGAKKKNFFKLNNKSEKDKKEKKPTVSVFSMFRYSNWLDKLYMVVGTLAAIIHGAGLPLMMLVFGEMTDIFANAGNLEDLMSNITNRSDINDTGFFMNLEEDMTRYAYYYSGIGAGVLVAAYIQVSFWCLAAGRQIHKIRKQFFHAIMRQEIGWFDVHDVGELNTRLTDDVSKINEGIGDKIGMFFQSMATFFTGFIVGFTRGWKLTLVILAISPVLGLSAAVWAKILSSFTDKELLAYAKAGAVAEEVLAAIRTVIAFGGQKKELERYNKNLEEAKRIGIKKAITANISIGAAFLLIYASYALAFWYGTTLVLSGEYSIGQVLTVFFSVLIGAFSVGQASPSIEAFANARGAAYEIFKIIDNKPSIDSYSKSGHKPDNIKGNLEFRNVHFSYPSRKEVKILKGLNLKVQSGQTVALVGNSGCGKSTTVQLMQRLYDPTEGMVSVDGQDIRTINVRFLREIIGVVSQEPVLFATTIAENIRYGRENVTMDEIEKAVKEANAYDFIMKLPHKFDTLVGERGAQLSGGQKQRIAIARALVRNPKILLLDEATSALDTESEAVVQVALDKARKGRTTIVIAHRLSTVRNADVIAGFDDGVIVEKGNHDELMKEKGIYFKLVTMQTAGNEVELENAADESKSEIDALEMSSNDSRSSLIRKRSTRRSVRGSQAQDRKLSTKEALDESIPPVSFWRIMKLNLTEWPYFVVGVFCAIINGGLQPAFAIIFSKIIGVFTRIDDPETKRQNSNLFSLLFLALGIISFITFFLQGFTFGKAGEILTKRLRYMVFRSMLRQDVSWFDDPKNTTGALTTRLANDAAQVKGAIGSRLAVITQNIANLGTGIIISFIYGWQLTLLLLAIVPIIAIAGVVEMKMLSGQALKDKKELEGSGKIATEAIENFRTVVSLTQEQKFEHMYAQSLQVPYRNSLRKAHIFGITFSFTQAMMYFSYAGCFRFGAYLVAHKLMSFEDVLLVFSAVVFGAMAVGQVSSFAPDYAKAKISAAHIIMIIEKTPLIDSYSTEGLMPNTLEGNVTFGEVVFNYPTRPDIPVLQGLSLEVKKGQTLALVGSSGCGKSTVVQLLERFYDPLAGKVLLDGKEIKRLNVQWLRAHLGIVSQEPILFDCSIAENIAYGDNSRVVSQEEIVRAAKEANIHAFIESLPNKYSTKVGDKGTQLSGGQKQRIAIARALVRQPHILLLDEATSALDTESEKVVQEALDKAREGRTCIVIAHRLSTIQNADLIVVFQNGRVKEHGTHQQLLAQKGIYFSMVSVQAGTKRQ", "experiment": "cell-based or functional assay"}}}
{"molecule": "CFITKALGISYGRKKRRQRRRPPQGSQTHQVSLSKQ [(37-72)Tat]", "values": [{"measurement": "shift in the flow cytometry histogram", "setting": "ABCB1 transporter; 1 μM, 210 min, FIG. 4F", "value": "small"}, {"measurement": "effect on MDR activity (summary of results)", "setting": "ABCB1 transporter; colchicine-resistant CH(R)B30 cells", "value": "only a marginal effect"}]}
{"molecule": "COc1cc2c(c(OC)c1OC)-c1ccc(OC)c(=O)cc1[C@@H](NC(C)=O)CC2", "note": "[colchicine]", "values": [{"measurement": "viability of HU-2 cells with drug, no conjugate", "setting": "HU-2 cells", "value": "remain viable"}]}
{"molecule": "COc1cccc2c1C(=O)c1c(O)c3c(c(O)c1C2=O)C[C@@](O)(C(=O)CO)C[C@@H]3O[C@H]1C[C@H](N)[C@H](O)[C@H](C)O1", "note": "[adriamycin, doxorubicin]", "values": [{"measurement": "viability of HU-2 cells with drug, no conjugate", "setting": "HU-2 cells", "value": "remain viable"}]}
{"molecule": "C219-S-S-(37-72)Tat conjugate (Mab C219 linked through PDPH and a disulfide bond to Cys 37 of HIV-1 (37-72)Tat) (antibody)", "values": [{"measurement": "cell death of HU-2 cells with Adriamycin 2 µg/ml in the presence of 10 µg conjugate, Trypan blue count after 96 h, normalized to drug without conjugate", "setting": "[1]", "value": 68, "unit": "%"}, {"measurement": "cell death of HU-2 cells with colchicine 1 µg/ml in the presence of 10 µg conjugate, Trypan blue count after 96 h, normalized to drug without conjugate", "setting": "[1]", "value": 91, "unit": "%"}]}
